According to article doi:10.1101/2023.11.29.569174v1:

B1: NUDT15 (Homo sapiens) (protein)
chain: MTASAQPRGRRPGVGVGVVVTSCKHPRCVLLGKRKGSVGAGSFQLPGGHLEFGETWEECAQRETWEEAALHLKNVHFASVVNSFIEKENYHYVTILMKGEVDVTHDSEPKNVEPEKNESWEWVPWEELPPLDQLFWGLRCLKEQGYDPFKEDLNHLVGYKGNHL
B2: NUDT18 (Homo sapiens) (protein)
chain: MASEGLAGALASVLAGQGSSVHSCDSAPAGEPPAPVRLRKNVCYVVLAVFLSEQDEVLLIQEAKRECRGSWYLPAGRMEPGETIVEALQREVKEEAGLHCEPETLLSVEERGPSWVRFVFLARPTGGILKTSKEADAESLQAAWYPRTSLPTPLRAHDILHLVELAAQYRQQARHPLILPQELPCDLVCQRLVATFTSAQTVWVLVGTVGMPHLPVTACGLDPMEQRGGMKMAVLRLLQECLTLHHLVVEIKGLLGLQHLGRDHSDGICLNVLVTVAFRSPGIQDEPPKVRGENFSWWKVMEEDLQSQLLQRLQGSSVVPVNR

Assays:
Assay in all cases: purified protein
purified protein [1] = substrate: C=C(C)CCO[P@@](=O)(O)OP(=O)(O)O; details: pH 8.0, 22 °C, 10 mM Mg acetate, 40 mM NaCl, 0.01% Tween 20
purified protein [2] = substrate: CC(C)=CCC/C(C)=C/COP(=O)(O)OP(=O)(O)O; details: pH 8.0, 22 °C, 10 mM Mg acetate, 40 mM NaCl, 0.01% Tween 20
purified protein [3] = substrate: CC(C)=CCOP(=O)(O)OP(=O)(O)O; details: pH 8.0, 22 °C, 10 mM Mg acetate, 40 mM NaCl, 0.01% Tween 20
purified protein [4] = substrate: Nc1nc2c(ncn2[C@H]2C[C@H](O)[C@@H](COP(=O)(O)OP(=O)(O)OP(=O)(O)O)O2)c(=O)[nH]1; details: pH 8.0, 22 °C, 10 mM Mg acetate, 40 mM NaCl
purified protein [5] = substrate: CC(C)=CCC/C(C)=C/CC/C(C)=C/CC/C(C)=C/COP(=O)(O)OP(=O)(O)O; details: pH 8.0, 22 °C, 10 mM Mg acetate, 40 mM NaCl, 0.01% Tween 20
purified protein [6] = substrate: CC(C)=CCC/C(C)=C/CC/C(C)=C/CO[P@@](=O)(O)OP(=O)(O)O; details: pH 8.0, 22 °C, 10 mM Mg acetate, 40 mM NaCl, 0.01% Tween 20
purified protein [7] = substrate: C[C@@](O)(CCOP(=O)(O)OP(=O)(O)O)CC(=O)O; details: pH 8.0, 22 °C, 10 mM Mg acetate, 40 mM NaCl, 0.01% Tween 20

Protein | Km (purified protein [1]) [µM] | kcat (purified protein [1]) [s⁻¹] | Km (purified protein [2]) [µM] | kcat (purified protein [2]) [s⁻¹] | Km (purified protein [3]) [µM] | kcat (purified protein [3]) [s⁻¹] | Km (purified protein [4]) [µM] | kcat (purified protein [4]) [min⁻¹] | Km (purified protein [5]) [µM] | kcat (purified protein [5]) [s⁻¹] | Km (purified protein [6]) [µM] | kcat (purified protein [6]) [s⁻¹] | Km (purified protein [7]) [µM] | kcat (purified protein [7]) [s⁻¹]
B1 | 63.6 ± 19.4 | 0.49 | 18.7 ± 0.2 | 0.72 | 159.3 ± 40.5 | 0.94 | 21 | 38.2 | – | – | – | – | – | –
B2 | 12.4 ± 2.6 | 0.87 | 3.7 ± 0.4 | 0.78 | 9.8 ± 2.9 | 0.94 | – | – | 17.9 ± 3.4 | 0.15 | 18.8 ± 3.9 | 0.52 | 26.8 ± 2.8 | 0.55
